Experimental data as given in US20040105862A1 (published 2004).
Where two headings read alike, the source gives them in different places.

What was measured:
rat TIMP-1 [1] = biological target: T1, rat TIMP-1 (rat, UniProt P30120 24-217); experiment: BIAcore SPR, Fab
T1 construct: Immobilised on BIAcore chip or ELISA plate; in solution in the protease assay

rat TIMP-1 [2] = biological target: T1, rat TIMP-1; experiment: cell-based or functional assay
rat TIMP-1 [3] = biological target: T1, rat TIMP-1; experiment: cell-based or functional assay; remark: listed apart in the source
human TIMP-1 [4] = biological target: T2, human TIMP-1 (human, UniProt P01033 24-207); experiment: BIAcore SPR, Fab, monovalent fit
T2 construct: Immobilised on BIAcore chip or ELISA plate; in solution in the protease assay

human TIMP-1 [5] = biological target: T2, human TIMP-1; experiment: cell-based or functional assay
human TIMP-1 [6] = biological target: T2, human TIMP-1; experiment: BIAcore SPR, Fab, monovalent fit; remark: listed apart in the source
human TIMP-1 [7] = biological target: T2, human TIMP-1; experiment: cell-based or functional assay; remark: listed apart in the source
human TIMP-1 [8] = biological target: T2, human TIMP-1; experiment: cell-based or functional assay; remark: listed apart in the source
human TIMP-1 [9] = biological target: T2, human TIMP-1; experiment: BIAcore SPR, Fab

T1 sequence (P30120 24-217 limits assumed): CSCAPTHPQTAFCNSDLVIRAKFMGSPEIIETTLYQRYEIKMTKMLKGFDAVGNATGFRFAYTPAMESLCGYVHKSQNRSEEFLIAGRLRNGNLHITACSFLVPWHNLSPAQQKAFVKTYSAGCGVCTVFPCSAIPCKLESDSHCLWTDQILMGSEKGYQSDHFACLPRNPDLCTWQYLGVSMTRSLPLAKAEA

B1: MS-BW-17-1 Fab (Fab, V domains shown)
VH: QVQLVQSGAEVKKPGESLKISCKGSGYSFTSYWIGWVRQMPGKGLEWMGIIYPGDSDTRYSPSFQGQVTISADKSISTAYLQWSSLKASDTAMYYCARLTNYFDSIYYDHWGQGTLVTVSS
VL: DIALTQPASVSGSPGQSITISCTGTSSDVGGYNYVSWYQQHPGKAPKLMIYDVSNRPSGVSNRFSGSKSGNTASLTISGLQAEDEADYYCQAFDVAPNGKVFGGGTKLTVLG
notes: Fab; LCDR3-optimised from MS-BW-17
Question: For B1, which “improvement factor (affinity) over parental clone” value (rat TIMP-1 [1]) is on record?
Answer: 16.3 fold

B2: MS-BW-17-2 (Fab, V domains shown)
VH: QVQLVQSGAEVKKPGESLKISCKGSGYSFTSYWIGWVRQMPGKGLEWMGIIYPGDSDTRYSPSFQGQVTISADKSISTAYLQWSSLKASDTAMYYCARLTNYFDSIYYDHWGQGTLVTVSS
VL: DIALTQPASVSGSPGQSITISCTGTSSDVGGYNYVSWYQQHPGKAPKLMIYDVSNRPSGVSNRFSGSKSGNTASLTISGLQAEDEADYYCQAFAVMPNVEVFGGGTKLTVLG
Question: How did the “improvement factor (functional activity in the protease assay) over parental clone” value (rat TIMP-1 [2]) turn out when B2 was run?
Answer: 10 fold

B3: MS-BW-63 (Fab, V domains shown)
VH: QVQLVQSGAEVKKPGESLKISCKGSGYSFTSYWIGWVRQMPGKGLEWMGIIYPGDSDTRYSPSFQGQVTISADKSISTAYLQWSSLKASDTAMYYCARILTGHVLLFDYWGQGTLVTVSS
VL: DIALTQPASVSGSPGQSITISCTGTSSDVGGYNYVSWYQQHPGKAPKLMIYDVSNRPSGVSNRFSGSKSGNTASLTISGLQAEDEADYYCQSDNPYLVFGGGTKLTVLG
Question: With B3 as the binder, how does the “IC50 in rat protease assay” value (rat TIMP-1 [3]) read?
Answer: 20000 µM

B4: MS-BW-3 (Fab, V domains shown)
VH: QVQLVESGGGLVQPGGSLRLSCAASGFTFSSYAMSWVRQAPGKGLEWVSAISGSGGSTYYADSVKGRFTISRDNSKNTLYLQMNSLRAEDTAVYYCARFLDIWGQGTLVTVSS
VL: DIALTQPASVSGSPGQSITISCTGTSSDVGGYNYVSWYQQHPGKAPKLMIYDVSNRPSGVSNRFSGSKSGNTASLTISGLQAEDEADYYCQSYDFLRFSVFGGGTKLTVL
Question: What does the source list for B4?
Answer: Kd (human TIMP-1 [4]): 0.013 µM; IC50 in human protease assay (human TIMP-1 [5]): 0.011 µM; Kd (human TIMP-1 [6]): 0.013 µM

B5: MS-BW-44 (Fab, V domains shown)
VH: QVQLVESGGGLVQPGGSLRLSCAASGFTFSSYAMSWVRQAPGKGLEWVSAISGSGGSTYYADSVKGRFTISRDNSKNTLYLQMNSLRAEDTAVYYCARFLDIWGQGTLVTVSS
VL: DIALTQPASVSGSPGQSITISCTGTSSDVGGYNYVSWYQQHPGKAPKLMIYDVSNRPSGVSNRFSGSKSGNTASLTISGLQAEDEADYYCQSYDFVRFMVFGGGTKLTVLG
Question: For B5, which “improvement factor (IC50) over MS-BW-3” value (human TIMP-1 [7]) is on record?
Answer: 2.75 fold

B6: MS-BW-44-2-16 (Fab, V domains shown)
VH: QVQLVESGGGLVQPGGSLRLSCAASGFTFSSYAMSWVRQAPGKGLEWVSGISGNGVLIFYADSVKGRFTISRDNSKNTLYLQMNSLRAEDTAVYYCARWFDVWGQGTLVTVSS
VL: DIALTQPASVSGSPGQSITISCTGTSSDVGGYNYVSWYQQHPGKAPKLMIYDVSNRPSGVSNRFSGSKSGNTASLTISGLQAEDEADYYCQSYDFVRFMVFGGGTKLTVLG
Question: How did the “ID50 in human protease assay (modified assay)” value (“ID50 in human protease assay” for short) (human TIMP-1 [8]) turn out when B6 was run?
Answer: 0.0003 µM

B7: MS-BW-44-2-15 (Fab, V domains shown)
VH: QVQLVESGGGLVQPGGSLRLSCAASGFTFSSYAMSWVRQAPGKGLEWVSGISGNGVLIFYADSVKGRFTISRDNSKNTLYLQMNSLRAEDTAVYYCARWFDHWGQGTLVTVSS
VL: DIALTQPASVSGSPGQSITISCTGTSSDVGGYNYVSWYQQHPGKAPKLMIYDVSNRPSGVSNRFSGSKSGNTASLTISGLQAEDEADYYCQSYDFVRFMVFGGGTKLTVLG
Question: With B7 as the binder, how does the “ID50 in human protease assay” value (human TIMP-1 [8]) read?
Answer: 0.0002 µM

B8: MS-BW-44-2-4 (Fab, V domains shown)
VH: QVQLVESGGGLVQPGGSLRLSCAASGFTFSSYAMSWVRQAPGKGLEWVSGISGNGVLIFYADSVKGRFTISRDNSKNTLYLQMNSLRAEDTAVYYCARGLMDYWGQGTLVTVSS
VL: DIALTQPASVSGSPGQSITISCTGTSSDVGGYNYVSWYQQHPGKAPKLMIYDVSNRPSGVSNRFSGSKSGNTASLTISGLQAEDEADYYCQSYDFVRFMVFGGGTKLTVLG
Question: With B8 as the binder, how does the “ID50 in human protease assay” value (human TIMP-1 [8]) read?
Answer: 0.0002 µM

B9: MS-BW-44-6 (Fab, V domains shown)
VH: QVQLVESGGGLVQPGGSLRLSCAASGFTFNSYAMSWVRQAPGKGLEWVSVISGNGSNTYYADSVKGRFTISRDNSKNTLYLQMNSLRAEDTAVYYCARFLDIWGQGTLVTVSS
VL: DIALTQPASVSGSPGQSITISCTGTSSDVGGYNYVSWYQQHPGKAPKLMIYDVSNRPSGVSNRFSGSKSGNTASLTISGLQAEDEADYYCQSYDFVRFMVFGGGTKLTVLG
notes: Fab
Question: How did the “gain factor (IC50) over MS-BW-44” value (human TIMP-1 [7]) turn out when B9 was run?
Answer: 10 fold

Question: What about the “ID50 in human protease assay” value (human TIMP-1 [8]) of the same binder?
Answer: 0.0002 µM

Question: What about the “affinity gain factor (Kd) over MS-BW-44” value (human TIMP-1 [9]) of the same binder?
Answer: 5 fold

B10: MS-BW-44-2 (Fab, V domains shown)
VH: QVQLVESGGGLVQPGGSLRLSCAASGFTFSSYAMSWVRQAPGKGLEWVSGISGNGVLIFYADSVKGRFTISRDNSKNTLYLQMNSLRAEDTAVYYCARFLDIWGQGTLVTVSS
VL: DIALTQPASVSGSPGQSITISCTGTSSDVGGYNYVSWYQQHPGKAPKLMIYDVSNRPSGVSNRFSGSKSGNTASLTISGLQAEDEADYYCQSYDFVRFMVFGGGTKLTVLG
notes: Fab
Question: How did the “gain factor (IC50) over MS-BW-44” value (human TIMP-1 [7]) turn out when B10 was run?
Answer: 5 fold

Question: And the “ID50 in human protease assay” value (human TIMP-1 [8])?
Answer: 0.0004 µM

Question: And the “affinity gain factor (Kd) over MS-BW-44” value (human TIMP-1 [9])?
Answer: 5 fold

B11: MS-BW-44-6-1 (Fab, V domains shown)
VH: QVQLVESGGGLVQPGGSLRLSCAASGFTFNSYAMSWVRQAPGKGLEWVSVISGNGSNTYYADSVKGRFTISRDNSKNTLYLQMNSLRAEDTAVYYCARFLDIWGQGTLVTVSS
VL: DIALTQPASVSGSPGQSITISCTGTSSDVGGYNYVSWYQQHPGKAPKLMIYDVSNRPSGVSNRFSGSKSGNTASLTISGLQAEDEADYYCQSYDFIRFMVFGGGTKLTVLG
Question: How did the “ID50 in human protease assay” value (human TIMP-1 [8]) turn out when B11 was run?
Answer: 0.0002 µM
